Results on 125 sequences are retold here after the supplement of paper PMC9112550, “Optimization of the antimicrobial peptide Bac7 by deep mutational scanning” (BMC Biology, 2022).

The subject of the data set is Escherichia coli TOP10. Kind of data set: shrunken log2 fold change of peptide-encoding DNA abundance (4.5 h post-induction vs induction); higher = less antimicrobial activity (less host growth inhibition). To be noted: time post-induction: 4.5 h; library: site-saturation at positions 5, 18, 19, 20.
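Note: peptides expressed intracellularly from a pBAD plasmid library in pooled LB shake-flask culture, induced with 0.3% L-arabinose, DNA abundance read by NGS, three biological replicates, DESeq2 with apeglm shrinkage.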

On to RRIRKRPPRLPRPRPRPAAFPRP, for which the “shrunken log2 fold change” value worked out at 0.59. For RRIRQRPPRLPRPRPRPPHYPRP, the “shrunken log2 fold change” value is 0.37.

Consider RRIRQRPPRLPRPRPRPAPDPRP, for which the “shrunken log2 fold change” value amounted to 0.261. As to RRIRVRPPRLPRPRPRPFKSPRP, the “shrunken log2 fold change” value was 0.0446.

RRIRWRPPRLPRPRPRPHYSPRP: the “shrunken log2 fold change” value is -0.279. Next, RRIRIRPPRLPRPRPRPQYAPRP: 0.0303; RRIRKRPPRLPRPRPRPNLMPRP: 3.86; RRIRHRPPRLPRPRPRPRDRPRP: 0.0898. For RRIRCRPPRLPRPRPRPFWAPRP, the “shrunken log2 fold change” value is -0.0403. With RRIRSRPPRLPRPRPRPNSKPRP, the “shrunken log2 fold change” value was -0.382. In the case of RRIRFRPPRLPRPRPRPWCFPRP, the “shrunken log2 fold change” value is -0.282. In the case of RRIRLRPPRLPRPRPRPRQVPRP, the “shrunken log2 fold change” value was -0.0496. Then RRIRYRPPRLPRPRPRPGKQPRP, with -0.0708. Regarding RRIRGRPPRLPRPRPRPTLPPRP, the “shrunken log2 fold change” value worked out at 0.574. Regarding RRIRRRPPRLPRPRPRPLTWPRP, the “shrunken log2 fold change” value is 0.845. Regarding RRIRIRPPRLPRPRPRPRNPPRP, the “shrunken log2 fold change” value is -0.0124. As for RRIRLRPPRLPRPRPRPRKSPRP, the “shrunken log2 fold change” value stood at 0.376. Take RRIRSRPPRLPRPRPRPLEAPRP: the “shrunken log2 fold change” value is 0.177. Then RRIRDRPPRLPRPRPRPHMSPRP, with -0.00968. For the sequence RRIRERPPRLPRPRPRPVWHPRP, the “shrunken log2 fold change” value was -0.154. As for RRIRDRPPRLPRPRPRPKLAPRP, the “shrunken log2 fold change” value was 0.271. On to RRIRLRPPRLPRPRPRPQEWPRP, for which the “shrunken log2 fold change” value was 0.0562. Regarding RRIRKRPPRLPRPRPRPQPWPRP, the “shrunken log2 fold change” value came to 0.805.

On to RRIRFRPPRLPRPRPRPCPVPRP, for which the “shrunken log2 fold change” value was -0.618. As for RRIRWRPPRLPRPRPRPFQPPRP, the “shrunken log2 fold change” value was -0.0697.

As to RRIRARPPRLPRPRPRPCNTPRP, the “shrunken log2 fold change” value is -0.0534.

In the case of RRIRIRPPRLPRPRPRPWIFPRP, the “shrunken log2 fold change” value was -0.498. Next, RRIRERPPRLPRPRPRPHLQPRP: -0.206.

Turning to RRIRSRPPRLPRPRPRPKSKPRP, the “shrunken log2 fold change” value is -0.0869. Then RRIRQRPPRLPRPRPRPCIKPRP, with 0.155; and RRIRPRPPRLPRPRPRPMLCPRP, with 0.122; and RRIRIRPPRLPRPRPRPEWRPRP, with 0.257. Turning to RRIRPRPPRLPRPRPRPRCFPRP, the “shrunken log2 fold change” value is 0.155. For the sequence RRIRNRPPRLPRPRPRPHNWPRP, the “shrunken log2 fold change” value was -0.391. As to RRIRSRPPRLPRPRPRPAAYPRP, the “shrunken log2 fold change” value came out at 0.269. Take RRIRARPPRLPRPRPRPLAAPRP: the “shrunken log2 fold change” value was 0.942. Then RRIRPRPPRLPRPRPRPNKFPRP, with -0.173; and RRIRVRPPRLPRPRPRPHMSPRP, with -0.405; and RRIRVRPPRLPRPRPRPRKMPRP, with 0.299. Turning to RRIRSRPPRLPRPRPRPEIWPRP, the “shrunken log2 fold change” value was found to be 0.456.

As for RRIRKRPPRLPRPRPRPVMSPRP, the “shrunken log2 fold change” value was -0.123. With RRIRLRPPRLPRPRPRPWHWPRP, the “shrunken log2 fold change” value was determined as 0.019. RRIRARPPRLPRPRPRPMKSPRP: the “shrunken log2 fold change” value was found to be 0.186. Consider RRIRTRPPRLPRPRPRPMYIPRP, for which the “shrunken log2 fold change” value was -1.2.

Consider RRIRARPPRLPRPRPRPKFTPRP, for which the “shrunken log2 fold change” value came to 0.00836. In the case of RRIRQRPPRLPRPRPRPKMFPRP, the “shrunken log2 fold change” value worked out at 0.106. Then RRIRIRPPRLPRPRPRPAYLPRP, with -0.376. RRIRFRPPRLPRPRPRPQKFPRP: the “shrunken log2 fold change” value is -0.259. On to RRIRLRPPRLPRPRPRPLLDPRP, for which the “shrunken log2 fold change” value turned out to be 0.3. On to RRIRCRPPRLPRPRPRPYEQPRP, for which the “shrunken log2 fold change” value was -0.435.

Regarding RRIRRRPPRLPRPRPRPHYSPRP, the “shrunken log2 fold change” value is -0.538. With RRIRSRPPRLPRPRPRPMPWPRP, the “shrunken log2 fold change” value was -0.039. For the sequence RRIRGRPPRLPRPRPRPPKDPRP, the “shrunken log2 fold change” value worked out at 0.799. Take RRIRMRPPRLPRPRPRPCKWPRP: the “shrunken log2 fold change” value is 0.0169.

RRIRKRPPRLPRPRPRPRMWPRP: the “shrunken log2 fold change” value was determined as 0.377. RRIRCRPPRLPRPRPRPLWSPRP: the “shrunken log2 fold change” value is -0.233. Next, RRIRCRPPRLPRPRPRPPICPRP: -0.248. For RRIRRRPPRLPRPRPRPIFFPRP, the “shrunken log2 fold change” value came to 0.261.

As for RRIRWRPPRLPRPRPRPVWEPRP, the “shrunken log2 fold change” value was 0.912.

RRIRCRPPRLPRPRPRPESRPRP: the “shrunken log2 fold change” value is 0.276.

Consider RRIRRRPPRLPRPRPRPSDWPRP, for which the “shrunken log2 fold change” value was -0.302. RRIRMRPPRLPRPRPRPTQTPRP: the “shrunken log2 fold change” value was 2.06. Consider RRIRERPPRLPRPRPRPQGIPRP, for which the “shrunken log2 fold change” value is -0.044. Next, RRIRLRPPRLPRPRPRPHRAPRP: -0.0697; RRIRCRPPRLPRPRPRPTDVPRP: -0.461; RRIRLRPPRLPRPRPRPLPSPRP: 3.98. Next, RRIRKRPPRLPRPRPRPIIFPRP: -0.147. RRIRWRPPRLPRPRPRPMAHPRP: the “shrunken log2 fold change” value turned out to be 0.0444.

As to RRIRCRPPRLPRPRPRPCLIPRP, the “shrunken log2 fold change” value is -0.404. Next, RRIRIRPPRLPRPRPRPGGGPRP: 0.659; RRIRKRPPRLPRPRPRPCVIPRP: 0.0227; RRIRDRPPRLPRPRPRPINVPRP: 0.0039. Turning to RRIRTRPPRLPRPRPRPFFYPRP, the “shrunken log2 fold change” value is -0.345. RRIRWRPPRLPRPRPRPPSIPRP: the “shrunken log2 fold change” value was found to be 0.357. RRIRERPPRLPRPRPRPNNSPRP: the “shrunken log2 fold change” value was -0.693. Turning to RRIRHRPPRLPRPRPRPTHSPRP, the “shrunken log2 fold change” value is -0.192. In the case of RRIRARPPRLPRPRPRPSTTPRP, the “shrunken log2 fold change” value was determined as 0.363. Then RRIRPRPPRLPRPRPRPAGWPRP, with 0.765; and RRIRQRPPRLPRPRPRPRIIPRP, with 0.00299. As for RRIRERPPRLPRPRPRPTSNPRP, the “shrunken log2 fold change” value is -0.504. Next, RRIRVRPPRLPRPRPRPCWLPRP: -0.0153; RRIRERPPRLPRPRPRPQKQPRP: -0.0621.

On to RRIRYRPPRLPRPRPRPHCRPRP, for which the “shrunken log2 fold change” value was -0.372.

Consider RRIRKRPPRLPRPRPRPICKPRP, for which the “shrunken log2 fold change” value amounted to 0.363. For RRIRKRPPRLPRPRPRPHQPPRP, the “shrunken log2 fold change” value stood at 0.413. In the case of RRIRSRPPRLPRPRPRPASGPRP, the “shrunken log2 fold change” value is 0.268.

In the case of RRIRERPPRLPRPRPRPMMKPRP, the “shrunken log2 fold change” value was -0.282. Next, RRIRHRPPRLPRPRPRPVMDPRP: 0.153; RRIRHRPPRLPRPRPRPPFAPRP: 0.564; RRIRGRPPRLPRPRPRPINKPRP: 0.287. Next, RRIRLRPPRLPRPRPRPRGAPRP: 0.425. Regarding RRIRARPPRLPRPRPRPNFHPRP, the “shrunken log2 fold change” value amounted to 0.0254. Next, RRIRNRPPRLPRPRPRPVNIPRP: -0.435; RRIRCRPPRLPRPRPRPFKTPRP: -0.478; RRIRHRPPRLPRPRPRPKRRPRP: 0.116. For RRIRPRPPRLPRPRPRPHRTPRP, the “shrunken log2 fold change” value is -0.0599.

Consider RRIRIRPPRLPRPRPRPPLWPRP, for which the “shrunken log2 fold change” value came out at 0.504. RRIRDRPPRLPRPRPRPPSVPRP: the “shrunken log2 fold change” value stood at 0.258.

Consider RRIRYRPPRLPRPRPRPRNTPRP, for which the “shrunken log2 fold change” value was -0.503. For RRIRMRPPRLPRPRPRPDQPPRP, the “shrunken log2 fold change” value is -0.0102. With RRIRARPPRLPRPRPRPNLWPRP, the “shrunken log2 fold change” value was found to be 0.467. RRIRFRPPRLPRPRPRPMPTPRP: the “shrunken log2 fold change” value worked out at 0.432. In the case of RRIRLRPPRLPRPRPRPTMDPRP, the “shrunken log2 fold change” value is -0.0334.

Take RRIRARPPRLPRPRPRPVNYPRP: the “shrunken log2 fold change” value is -0.476. With RRIRSRPPRLPRPRPRPASRPRP, the “shrunken log2 fold change” value amounted to 0.189. With RRIRPRPPRLPRPRPRPRWPPRP, the “shrunken log2 fold change” value came to 0.616. Then RRIRIRPPRLPRPRPRPYIIPRP, with -0.403. For RRIRQRPPRLPRPRPRPDDNPRP, the “shrunken log2 fold change” value was determined as 0.0317.

For RRIRYRPPRLPRPRPRPNWSPRP, the “shrunken log2 fold change” value came to 0.0306. Consider RRIRPRPPRLPRPRPRPGDGPRP, for which the “shrunken log2 fold change” value came to 0.979. Then RRIRERPPRLPRPRPRPIPEPRP, with -0.882; and RRIRRRPPRLPRPRPRPSEYPRP, with -0.192. Turning to RRIRPRPPRLPRPRPRPWTTPRP, the “shrunken log2 fold change” value is -0.012.

Regarding RRIRFRPPRLPRPRPRPYQHPRP, the “shrunken log2 fold change” value was -0.898. As to RRIRQRPPRLPRPRPRPQMGPRP, the “shrunken log2 fold change” value is -0.553. Next, RRIRCRPPRLPRPRPRPEREPRP: 0.108; RRIRWRPPRLPRPRPRPKTKPRP: 0.101.

In the case of RRIRCRPPRLPRPRPRPIMHPRP, the “shrunken log2 fold change” value was -0.135. As for RRIRPRPPRLPRPRPRPNCHPRP, the “shrunken log2 fold change” value was found to be 0.0382. In the case of RRIRARPPRLPRPRPRPQSQPRP, the “shrunken log2 fold change” value was -0.0155. On to RRIRNRPPRLPRPRPRPDVVPRP, for which the “shrunken log2 fold change” value is -0.0975. As to RRIRPRPPRLPRPRPRPMPMPRP, the “shrunken log2 fold change” value is -0.301. As to RRIRYRPPRLPRPRPRPDAVPRP, the “shrunken log2 fold change” value was -0.365. In the case of RRIRMRPPRLPRPRPRPVQLPRP, the “shrunken log2 fold change” value was 0.0278.

With RRIRKRPPRLPRPRPRPVWLPRP, the “shrunken log2 fold change” value was found to be 0.192.
